Measurements: the supplement of paper PMC9170038

Tested on: MS2 coat protein
Experiment: apparent KD of MS2 coat protein; designed switch direction (-1 OFF switch, 1 ON switch): 1; higher = weaker reporter binding
Procedure, shortened: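 Designed RNA switches sharing common flanks were transcribed on Illumina chips by stalled E. coli RNA polymerase. They were titrated with SNAP-549-labelled MS2 coat protein, from 0.7 or 1.5 nM doubling to 3 µM, in Tris-HCl pH 7.5 buffer with KCl, MgCl2, BSA, DTT, tRNA and Tween-20. Titrations ran without input, with 200 uM small-molecule ligand, or with an oligonucleotide input. The apparent KD of each design is the median over its clusters, after curve-fitting of normalised cluster fluorescence.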

[1] = Eterna round: R95, input ligand: FMN 200 uM
[2] = Eterna round: R95, input ligand: microRNA oligo, concentration not stated
[3] = Eterna round: R95, input ligand: none
[4] = input ligand: microRNA oligo, concentration not stated

Sequence | apparent KD of MS2 coat protein [1] | apparent KD of MS2 coat protein [2] | apparent KD of MS2 coat protein [3] | apparent KD of MS2 coat protein (input ligand: FMN 200 uM) | apparent KD of MS2 coat protein [4] | apparent KD of MS2 coat protein (input ligand: none)
AUCCUACAUGAGGAUCACCCAUGUGACGCCUCGAUAGGAUAUGCGUGUGCCUUGGCGCAUGCAGAAGGAUUGUUGC [JL Aveso mod 7] (puzzle: Same State 1) | 69.2 nM | 17.5 nM | 27.1 nM |  |  | 
AUGCCAAAACGAGGAUAUGGAGCCUUAUUGGCUCCAGAAGGUGUGACAUGAGGAUCACCCAUGUGGCAGUGGUCUAAUGACCAC [Eli NG1ss - 40] (Eterna round: R96, puzzle: Same State NG 1) |  |  |  | 94.2 nM | 105 nM | 133 nM
AUGUGGAAGCCACAGGAUAUACUAGGGUACACAUGAGGAUCACCCAUGUGCGGCUAAAAGUGCUAGUAGAAGGGUGGUAAAGAAA [Diartire] (puzzle: Same State 2) | 13.8 nM | 12.5 nM | 15 nM |  |  | 
AUGUUUAAUGCAGGAUAUGAUUAACAUGAGGAUCACCCAUGUGGUGUUGUGAGUAAGGAGAGUGAUCAGAAGGGCAUUUUUUUU [JMF's solution 101] (Eterna round: R96, puzzle: Same State NG 2) |  |  |  |  | 516 nM | 
AUUAAACAUGAGGAUCACCCAUGUCAACAAAGUCGAGGAUAUGGGCAAAUAAAAUAAGAACCAGAAGGCGACUAAU [salish99_ss1_r3_071] (puzzle: Same State 1) |  | 22.3 nM |  |  |  | 
AUUAAACAUGAGGAUCACCCAUGUCAACAUAGUCGAGGAUAUGGGCAAAUAAAAUAAGAACCAGAAGGCGAAUAAU [salish99_ss1_r3_075] (puzzle: Same State 1) | 45.2 nM | 266 nM | 335 nM |  |  | 
AUUAAUUAAUUAAUACAUGAGGAUCACCCAUGUAAUAAGAUCAAGGAUAUCAGCUCGAUUAGAGCUGAGAAGGUGAUCACAUGU [SSNG3/17-B2] (Eterna round: R96, puzzle: Same State NG 3) |  |  |  |  | 509 nM | 
AUUAUACAUGAGGAUCACCCAUGUAAUUAAUCUAGUAAGAUCUAGGAUAUCAGCUCGAAUAGAGCUGAGAAGGAGAUCACAUGU [SSNG3/20-D1] (Eterna round: R96, puzzle: Same State NG 3) |  |  |  |  | 45.8 nM | 
AUUAUACAUGAGGAUCACCCAUGUAAUUAAUUAAUUAAGAUCAAGGAUAUCAGCUCGUUUAGAGCUGAGAAGGUGAUCACAUGU [SSNG3/20-B3] (Eterna round: R96, puzzle: Same State NG 3) |  |  |  |  | 147 nM | 
AUUAUACAUGAGGAUCACCCAUGUAAUUAAUUAAUUAAGAUCUAGGAUAUCAGCUCGUUUAGAGCUGAGAAGGAGAUCACAUGU [SSNG3/20-C3] (Eterna round: R96, puzzle: Same State NG 3) |  |  |  |  | 23.3 nM | 
AUUAUUAAUGCAGGAUAUGAAUAACAUGAGGAUCACCCAUGUGGUGUUGUGAGUAAGGAGAGAGAUCAGAAGGGCAUUUUUUUU [JMF's solution 4] (Eterna round: R96, puzzle: Same State NG 2) |  |  |  | 349 nM | 225 nM | 258 nM
AUUAUUUAUGCAGGAUAUGAUUAACAUGAGGAUCACCCAUGUGGUGUUGUGAGUAAGGAGAGUGAUCAGAAGGGCAUUGUUUUU [JMF's solution 46] (Eterna round: R96, puzzle: Same State NG 2) |  |  |  | 1450 nM | 473 nM | 475 nM
AUUAUUUAUGCAGGAUAUGAUUAACAUGAGGAUCACCCAUGUGGUGUUGUGAGUAAGGAGAGUGAUCAGAAGGGCAUUUGUUUU [JMF's solution 48] (Eterna round: R96, puzzle: Same State NG 2) |  |  |  | 386 nM | 321 nM | 402 nM
AUUGCUUACGCAGGAUAUGAUGCGAAAAUUGCGUCAGAAGGGUGAAGUGACUCGUUGCAACAAGACAUGAGGAUCACCCAUGUC [SameState NG1 #92] (Eterna round: R96, puzzle: Same State NG 1) |  |  |  | 135 nM | 116 nM | 199 nM
AUUUAACAAGCUUUUUGCUCGUCUUAUAAACAUGAGGAUCACCCAUGUAAUAGCGUGAGAGUAAAUAAUUUAAUUAU [JMF 99] (puzzle: Sensor for hsa-mir-208a) | 13.7 nM | 48.6 nM | 10.8 nM |  |  | 
AUUUUUAAUGCAGGAUAUGAUUAACAUGAGGAUCACCCAUGUGGUGUUGUGAGUAAGGAGAGUGAUCAGAAGGGCAUUUUUUGU [JMF's solution 87] (Eterna round: R96, puzzle: Same State NG 2) |  |  |  | 827 nM | 301 nM | 621 nM
CAGCGCUGUCGAGAGGAUAUGUGGUGAUGGACAUGAGGAUCACCCAUGUUAGCGACAGCAUCACGGCAGAAGGCUCUACCGCUGC [Soteed Omei mod 30] (puzzle: Same State 2) | 31.2 nM | 40.6 nM | 23.1 nM |  |  | 
CAGCGCUGUUGAGAGGAUAUGCGGUGAUGGACAUGAGGAUCACCCAUGUUAGCGACAGCAUUACGGCAGAAGGCUUCACAGCUGC [Soteed Omei mod 17] (Eterna round: R96, puzzle: Same State 2) |  |  |  | 13.9 nM | 36.9 nM | 47.1 nM
CAGCGCUGUUGAGAGGAUAUGCGGUGAUGGACAUGAGGAUCACCCAUGUUAGCGACAGCAUUACGGCAGAAGGCUUCACAGCUGC [Soteed Omei mod 17] (puzzle: Same State 2) |  | 39.3 nM |  |  |  | 
CAGCGCUGUUGAGAGGAUAUGCGGUGAUGGACAUGAGGAUCACCCAUGUUAGCGAUAGCAUUACGGUAGAAGGCUCUACAGCUGC [Soteed Omei mod 3] (puzzle: Same State 2) |  | 14 nM |  |  |  | 
CAGUGCUGUUGAGAGGAUAUGCGGCGACGGACAUGAGGAUCACCCAUGUUAGCGACAGCGUUGCGGCAGAAGGCUCUGCCCACUG [Soteed Omei mod 49] (puzzle: Same State 2) |  | 8.8 nM |  |  |  | 
CAUAAUAAAACGGAGGAUAUGCUACCCUUCACAUGAGGAUCACCCAUGUUACCCUCUUAUUUUCAGUAGAAGGCCGAUACAUAAC [Delilah] (puzzle: Same State 2) | 38.1 nM | 31.9 nM | 38.9 nM |  |  | 
CAUCAUGCGUCUAAGGAUAUGUCUCACAAGACAUGAGGAUCACCCAUGUAGAAUAAAUAAAUGAUGCAGAAGGUGGAGCGCAUGC [Erzausis] (Eterna round: R96, puzzle: Same State 2) |  |  |  |  | 253 nM | 
CAUCUAUACGUAGGAUAUGUAGGAUAUGCCUACAUGAGGAUCACCCAUGUUCGCAUGGCAGAAGGACAGAAGGACGAACUACUU [pwkr ssNG2 2FMN + 1F5.6] (Eterna round: R96, puzzle: Same State NG 2) |  |  |  | 32.4 nM | 174 nM | 234 nM
CAUCUAUACUUAGGAUAUGUAGGAUAUGCCUACAUGAGGAUCACCCAUGUUCGCAUGGCAGAAGGACAGAAGGAAGAACUACUU [pwkr ssNG2 2FMN + 1F5.5] (Eterna round: R96, puzzle: Same State NG 2) |  |  |  | 94.3 nM | 57.3 nM | 266 nM
CCAGGACAUGAGGAUCACCCAUGUGCUUAAUGUGGAGAAUCUCAGGAUAUCAUGAGGAUCACCCAUGAGAAGGGAGAUCCGAGG (Eterna round: R96, puzzle: Same State NG 3) |  |  |  | 573 nM | 234 nM | 398 nM
CCAUAACAGUGAGGAUAUUGUUGCGAUAAGUGACGAGAAGGCAUUUAUGUGAAAUAAACAUACAUGAGGAUCACCCAUGUUGUA [Omei SS(NG)1 Bv4] (Eterna round: R96, puzzle: Same State NG 1) |  |  |  | 17.3 nM | 16.7 nM | 22.3 nM
CCGAUUUAUGGAGGAUAUGGAGCCUUAUUGGCUCCAGAAGGUCAAUAACAUGAGGAUCACCCAUGUACGGCGGUCAAUAGACCG [Eli NG1ss - 70] (Eterna round: R96, puzzle: Same State NG 1) |  |  |  | 24.8 nM | 28.1 nM | 34.6 nM
CCGUAAAAUGGAGGAUAUGGAGCCUUAUUGGCUCCAGAAGGUCAUAAAACAUGAGGAUCACCCAUGUCGGCGGUCAAUAGACCG [Eli NG1ss - 78] (Eterna round: R96, puzzle: Same State NG 1) |  |  |  |  | 31.5 nM | 
CCGUAGAUGGUAGGAUAUGGAGCCUUAUUGGCUCCAGAAGGAUCGAAACAUGAGGAUCACCCAUGUUCGGCGGUCAAUAGACCG [Eli NG1ss - 85] (Eterna round: R96, puzzle: Same State NG 1) |  |  |  | 22.5 nM | 17.6 nM | 23.9 nM
